# Measurements: patent publication US20030096757
# T1: 19-mer (SEQ ID NO:11) cleavage domain peptide
# T1 chain: PRCGNPDVANYNFFPRKPK
# B1: Proenzyme pro-MMP-9 (protein)
# chain: APRQRQSTLVLFPGDLRTNLTDRQLAEEYLYRYGYTRVAEMRGESKSLGPALLLLQKQLSLPETGELDSATLKAMRTPRCGVPDLGRFQTFEGDLKWHHHNITYWIQNYSEDLPRAVIDDAFARAFALWSAVTPLTFTRVYSRDADIVIQFGVAEHGDGYPFDGKDGLLAHAFPPGPGIQGDAHFDDDELWSLGKGVVVPTRFGNADGAACHFPFIFEGRSYSACTTDGRSDGLPWCSTTANYDTDDRFGFCPSERLYTQDGNADGKPCQFPFIFQGQSYSACTTDGRSDGYRWCATTANYDRDKLFGFCPTRADSTVMGGNSAGELCVFPFTFLGKEYSTCTSEGRGDGRLWCATTSNFDSDKKWGFCPDQGYSLFLVAAHEFGHALGLDHSSVPEALMYPMYRFTEGPPLHKDDVNGIRHLYGPRPEPEPRPPTTTTPQPTAPPTVCPTGPPTVHPSERPTAGPTGPPSAGPTGPPTAGPSTATTVPLSPVDDACNVNIFDAIAEIGNQLYLFKDGKYWRFSEGRGSRPQGPFLIADKWPALPRKLDSVFEERLSKKLFFFSGRQVWVYTGASVLGPRRLDKLGLGADVAQVTGALRSGRGKMLLFSGRRLWRFDVKAQMVDPRSASEVDRMFPGVPLDTHDVFQYREKAYFCQDRFYWRVSSRSELNQVDQVGYVTYDILQCPED
# Molecular target: T1, 19-mer (SEQ ID NO:11) cleavage domain …
protein,measurement,value
B1,"anti-activation (splicing) assay: conversion of pro-MMP-9 by stromilysin, HPLC peak areas",Titrating the standard splicing reaction with the 19-mer (SEQ ID NO:11) peptide prevents the conversion of pro-MMP-9 into the prodomain and the active enzyme. Splicing can be inhibited in a dose dependent manner with micromolar 19-mer (SEQ ID NO:11) peptide.
